Earlier results as cited in publication PMC7887631.

Molecular target: Prion protein (PrPC) (UniProt P04156)

STI1 (from UniProt P31948)
Kd: 100 nM
